Experimental data published in US20240116985A1 (published 2024).
Starred links: 1 amine or outer side, 2 acyl side, 3 side chain; linkers in the order of their positions; H or OH if unused. Positions of bridges follow the written chain, without caps; N, C: chain ends. Non-standard residues stand in square brackets, D forms with d. Primed or numbered codes have the meaning given here. *: point of attachment. PyrS2″ = (S)-3-amino-1-((pent-4-en-1-yloxy)carbonyl)pyrrolidine-3-carboxylic acid (stapling residue), C=CCCCOC(=O)N1CC[C@@](N[*:1])(C(=O)[*:2])C1; B5(17) = 2,2-bis(4-pentenyl)glycine = 2-amino-2-(pent-4-en-1-yl)hept-6-enoic acid, stitching residue, C=CCCCC(CCCC=C)(N[*:1])C(=O)[*:2]; B5(4) = 2,2-bis(4-pentenyl)glycine = 2-amino-2-(pent-4-en-1-yl)hept-6-enoic acid (stitching residue), C=CCCCC(CCCC=C)(N[*:1])C(=O)[*:2]; B5(5) = 2,2-bis(4-pentenyl)glycine, 2-amino-2-(pent-4-en-1-yl)hept-6-enoic acid (stitching residue), C=CCCCC(CCCC=C)(N[*:1])C(=O)[*:2]; TfeGA = (S)-2-amino-3-((carboxymethyl)(2,2,2-trifluoroethyl)amino)propanoic acid, O=C([C@H](CN(CC(=O)[*:3])CC(F)(F)F)N[*:1])[*:2]; PyrS2 = (S)-3-amino-1-((pent-4-en-1-yloxy)carbonyl)pyrrolidine-3-carboxylic acid, C=CCCCOC(=O)N1CC[C@@](N[*:1])(C(=O)[*:2])C1; 5iPr3COOHF = (S)-3-(2-amino-2-carboxyethyl)-5-isopropylbenzoic acid, CC(C)c1cc(C[C@H](N[*:1])C(=O)[*:2])cc(C(=O)[*:3])c1; B5(22) = 2-amino-2-(pent-4-en-1-yl)hept-6-enoic acid (two alkene side chains), C=CCCCC(CCCC=C)(N[*:1])C(=O)[*:2]; B5(3) = 2,2-bis(4-pentenyl)glycine (stitching residue), C=CCCCC(CCCC=C)(N[*:1])C(=O)[*:2]; 2F3MeF = Cc1cccc(C[C@H](N[*:1])C(=O)[*:2])c1F; Phe(2-CF3) = N[C@@H](Cc1ccccc1C(F)(F)F)C(=O)O; Phe(3-Cl) = N[C@@H](Cc1cccc(Cl)c1)C(=O)O; Phe(2-Br) = N[C@@H](Cc1ccccc1Br)C(=O)O; Phe(2-CN) = N#Cc1ccccc1C[C@H](N)C(=O)O; Phe(2-Cl) = N[C@@H](Cc1ccccc1Cl)C(=O)O; Bta = N[C@@H](Cc1csc2ccccc12)C(=O)O; αAllylPro = C=CC[C@@]1(C(=O)O)CCCN1; tBuAla = CC(C)(C)C[C@H](N)C(=O)O; 3Thi = N[C@@H](Cc1ccsc1)C(=O)O; S8 = C=CCCCCCC[C@](C)(N)C(=O)O; Thr(ol) = C[C@@H](O)[C@H](N)CO; hLeu = CC(C)CC[C@H](N)C(=O)O; Leu(ol) = CC(C)C[C@H](N)CO; NH(CH2)6NH2 = NCCCCCCN*; Alaol = C[C@@H](CO)N*; Ms = CS(=O)(=O)*

B1: I-543 (peptide)
peptide: Ac-[αAllylPro]DL[B5(4)]DEAAFN[S8]F[Bta]H-NH2
modifications: staple 1-4, 4-11
B2: I-550 (peptide)
peptide: XDIXDDAAFNXFXQ
modifications: not fully specified; N-terminal Ac; PL3 at 1; B5 at 4; S8 at 11; 2OMeF at 12; BztA at 13; C-terminal NH2; staples PL3(1)-B5(4) and B5(4)-S8(11) by olefin metathesis
B3: I-557 (peptide)
peptide: Ac-[αAllylPro]DI[B5(17)]DEAAFN[S8]F[Bta]Q-NH2
modifications: staple 1-4, 4-11
B4: I-1240 (peptide)
peptide: Ac-[αAllylPro]D[tBuAla][B5(4)]D[TfeGA]AAFT[PyrS2″][Phe(2-Cl)][Bta]Q-NHEt
modifications: staple 1-4, 4-11
B5: I-1241 (peptide)
peptide: Ac-[αAllylPro]D[tBuAla][B5(4)]D[TfeGA]AAFT[PyrS2″][Phe(2-Cl)][Bta][Thr(ol)]
modifications: staple 1-4, 4-11
B6: I-1242 (peptide)
peptide: Ac-[αAllylPro]D[tBuAla][B5(4)]D[TfeGA]AAFT[PyrS2″][Phe(2-Cl)][Bta]-Alaol
modifications: staple 1-4, 4-11
B7: I-1244 (peptide)
peptide: Ac-[αAllylPro]D[tBuAla][B5(4)]DDAAFT[PyrS2″][Phe(2-Cl)][Bta]S-NHEt
modifications: staple 1-4, 4-11
B8: I-1245 (peptide)
peptide: Ac-[αAllylPro]D[tBuAla][B5(4)]DDAAFT[PyrS2″][Phe(2-Cl)][Bta][Thr(ol)]
modifications: staple 1-4, 4-11
B9: I-1246 (peptide)
peptide: Ac-[αAllylPro]D[tBuAla][B5(4)]DDAAFT[PyrS2″][Phe(2-Cl)][Bta]-Alaol
modifications: staple 1-4, 4-11
B10: I-1247 (peptide)
peptide: Ac-[αAllylPro]D[tBuAla][B5(4)]DDAAFT[PyrS2″][Phe(2-Cl)][Bta][Leu(ol)]
modifications: staple 1-4, 4-11
B11: I-1053 (peptide)
peptide: XDXXDDAAFNXXXQ
modifications: not fully specified; AzAc-PL3-Asp-Npg-B5-Asp-Asp-Ala-Ala-Phe-Asn-S8-3Thi-BztA-Gln-NH2; stapled PL3-B5 and B5-S8 (olefin metathesis)
B12: I-1054 (peptide)
peptide: AzAc-[αAllylPro]D[tBuAla][B5(4)]D[TfeGA]AAFN[PyrS2][3Thi][Bta]Q-NH2
modifications: staple 1-4, 4-11; not fully specified
B13: I-1061 (peptide)
peptide: Ac-[αAllylPro]D[tBuAla][B5(4)]D[TfeGA]AAFT[PyrS2][Phe(2-Cl)][Bta]Q-{NH(CH2)6NH2}
modifications: staple 1-4, 4-11
B14: I-930 (peptide)
peptide: Ac-[αAllylPro]D[tBuAla][B5(3)]D[TfeGA]AAFT[S8][Phe(2-Cl)][Bta]Q-NH2
modifications: staple 1-4, 4-11
B15: I-932 (peptide)
peptide: Ac-[αAllylPro]D[tBuAla][B5(22)]D[TfeGA]AAFN[S8][Phe(2-Br)][Bta]Q-NH2
modifications: staple 1-4, 4-11
B16: I-933 (peptide)
peptide: Ac-[αAllylPro]D[tBuAla][B5(22)]D[TfeGA]AAFN[S8][Phe(3-Cl)][Bta]Q-NH2
modifications: staple 1-4, 4-11
B17: I-934 (peptide)
peptide: Ac-[αAllylPro]D[tBuAla][B5(22)]D[TfeGA]AAFN[S8][2F3MeF][Bta]Q-NH2
modifications: staple 1-4, 4-11
B18: I-935 (peptide)
peptide: Ac-[αAllylPro]D[tBuAla][B5(22)]DDAAFN[PyrS2][3Thi][Bta]QK(PropynPEG1)-NH2
modifications: staple 1-4, 4-11
B19: I-936 (peptide)
peptide: Ac-[αAllylPro]D[tBuAla][B5(22)]DDAAFN[PyrS2][3Thi][Bta]QK(PropynPEG2)-NH2
modifications: staple 1-4, 4-11
B20: I-939 (peptide)
peptide: Ac-[αAllylPro]D[tBuAla][B5(22)]DDAAFN[PyrS2][3Thi][Bta]QK-NH2
modifications: staple 1-4, 4-11
B21: Ac-PL3-Asp-Npg-B5-Asp-Asp-Ala-Ala-Phe-Leu-PyrS2-2CNF-BztA-Gln-NH2 (peptide)
peptide: Ac-[αAllylPro]D[tBuAla][B5(3)]DDAAFL[PyrS2″][Phe(2-CN)][Bta]Q-NH2
modifications: staple 1-4, 4-11
B22: Ac-PL3-Asp-Npg-B5-Asn-Asp-Ala-Ala-Phe-Asn-PyrS2-3Thi-BztA-Gln-NH2 (peptide)
peptide: Ac-[αAllylPro]D[tBuAla][B5(3)]NDAAFN[PyrS2″][3Thi][Bta]Q-NH2
modifications: staple 1-4, 4-11
B23: Ac-PL3-Asp-Npg-B5-Asn-Asp-Ala-Ala-Phe-Leu-PyrS2-3Thi-BztA-Gln-NH2 (peptide)
peptide: Ac-[αAllylPro]D[tBuAla][B5(3)]NDAAFL[PyrS2″][3Thi][Bta]Q-NH2
modifications: staple 1-4, 4-11
B24: MeSO2-PL3-Asp-Npg-B5-Asp-Asp-Ala-Ala-Phe-Asn-PyrS2-3Thi-BztA-Gln-NH2 (peptide)
peptide: Ms-[αAllylPro]D[tBuAla][B5(3)]DDAAFN[PyrS2″][3Thi][Bta]Q-NH2
modifications: staple 1-4, 4-11
B25: MeSO2-PL3-Asp-Npg-B5-Asp-TfeGA-Ala-Ala-Phe-Asn-PyrS2-3Thi-BztA-Gln-NH2 (peptide)
peptide: Ms-[αAllylPro]D[tBuAla][B5(3)]D[TfeGA]AAFN[PyrS2″][3Thi][Bta]Q-NH2
modifications: staple 1-4, 4-11
B26: Ac-PL3-Asn-Npg-B5-Asp-Asp-Ala-Ala-Phe-Asn-PyrS2-3Thi-BztA-Gln-NH2 (peptide)
peptide: Ac-[αAllylPro]N[tBuAla][B5(3)]DDAAFN[PyrS2″][3Thi][Bta]Q-NH2
modifications: staple 1-4, 4-11
B27: I-2430 (peptide)
peptide: Ac-[αAllylPro]D[tBuAla][B5(5)]D[5iPr3COOHF]AAFL[PyrS2″][Phe(2-CF3)][Bta]Q-NH2
modifications: staple 1-4, 4-11
B28: I-2431 (peptide)
peptide: Ac-[αAllylPro]D[tBuAla][B5(5)]D[5iPr3COOHF]QAFL[PyrS2″][Phe(2-CF3)][Bta]A-NH2
modifications: staple 1-4, 4-11
B29: I-544 (peptide)
peptide: Ac-[αAllylPro]D[tBuAla][B5(4)]DEAAFQ[S8]F[Bta]Q-NH2
modifications: staple 1-4, 4-11
B30: I-545 (peptide)
peptide: Ac-[αAllylPro]D[hLeu][B5(4)]DEAAFQ[S8]F[Bta]Q-NH2
modifications: staple 1-4, 4-11
B31: I-546 (peptide)
peptide: Ac-[αAllylPro]D[tBuAla][B5(4)]DDAAFN[S8]F[Bta]Q-NH2
modifications: staple 1-4, 4-11
B32: I-548 (peptide)
peptide: Ac-[αAllylPro]D[hLeu][B5(4)]DDAAFN[S8]F[Bta]Q-NH2
modifications: staple 1-4, 4-11; not fully specified

Target: T1, full-length beta-Catenin (Uniprot ID P35222) (Homo sapiens (Human), UniProt P35222 1-781)
T1 construct: also called bCat; B-Catenin
T1 sequence: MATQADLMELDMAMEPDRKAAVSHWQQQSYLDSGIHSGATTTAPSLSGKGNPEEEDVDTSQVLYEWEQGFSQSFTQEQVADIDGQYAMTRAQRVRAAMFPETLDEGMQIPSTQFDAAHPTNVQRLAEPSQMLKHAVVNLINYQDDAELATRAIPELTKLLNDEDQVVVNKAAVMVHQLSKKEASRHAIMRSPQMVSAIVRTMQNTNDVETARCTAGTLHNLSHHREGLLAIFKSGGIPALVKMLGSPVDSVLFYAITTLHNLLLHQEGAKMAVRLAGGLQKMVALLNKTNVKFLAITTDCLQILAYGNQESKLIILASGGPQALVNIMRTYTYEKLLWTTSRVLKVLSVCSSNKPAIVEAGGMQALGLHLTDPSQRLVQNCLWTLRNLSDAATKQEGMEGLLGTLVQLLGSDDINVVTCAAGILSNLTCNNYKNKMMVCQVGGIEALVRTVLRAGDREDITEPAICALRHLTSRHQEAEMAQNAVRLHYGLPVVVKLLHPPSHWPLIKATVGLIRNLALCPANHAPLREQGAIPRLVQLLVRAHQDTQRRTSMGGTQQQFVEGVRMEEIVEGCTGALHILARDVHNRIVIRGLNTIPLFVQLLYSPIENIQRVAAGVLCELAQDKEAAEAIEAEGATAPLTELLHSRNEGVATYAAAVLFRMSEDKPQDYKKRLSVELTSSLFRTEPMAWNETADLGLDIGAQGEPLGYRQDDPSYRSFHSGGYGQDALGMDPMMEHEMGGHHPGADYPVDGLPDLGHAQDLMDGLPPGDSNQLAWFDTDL
Test: fluorescence polarization competition; full-length beta-catenin with 5FAM-labeled TCF4 residues 10-53 probe as competitor
Experimental: The plate was incubated protected from light for 60 minutes at 20° C. prior to read. Reads were performed on a CLARIOstar plate reader (BMG Labtech) in duplicate, and data were fitted to a 1:1 binding model with hill slope using an in-house script. All provided concentrations are final concentrations.

Binder	IC50 [nM]
B1	32
B2	30
B3	35

Target: T2, B-cat-Halo (UniProt P35222 1-781)
T2 sequence (looked up): T1 sequence
Test: cell-based or functional assay

Binder	NanoBRET Abs IC50 [µM]
B4	11.5
B5	15.7
B6	> 20
B7	17.7
B8	12.2
B9	24.3
B10	> 20

Target: T3, B-cat-Halo (beta-catenin HaloTag NanoBRET construct expressed in HEK293 cells) (UniProt P35222 1-781)
T3 sequence (looked up): T1 sequence
Test: cell-based or functional assay

Binder	NanoBRET Abs IC50 [µM]
B11	> 20
B12	> 20
B13	10.3

Target: T4, beta-catenin in DLD1 TCF/LEF reporter cells (UniProt P35222 1-781)
T4 sequence (looked up): T1 sequence
Test: cell-based or functional assay

Binder	DLD1 reporter assay Abs IC50 [µM]
B4	4.9
B5	3.8
B6	4.8
B7	13.9
B8	7.3
B9	15.9
B10	> 20

Target: T5, B-cat-Halo (beta-catenin HaloTag NanoBRET construct expressed in HEK293 cells) (UniProt P35222 1-781, HaloTag NanoBRET 618 Ligand bound to the HaloTag)
T5 sequence (looked up): T1 sequence
Test: cell-based or functional assay

Binder	NanoBRET Abs IC50 [µM]
B14	13.5
B15	11.4
B16	22.2
B17	19.2
B18	33.1
B19	22.2
B20	25.1

Target: T6, B-cat-Halo (beta-catenin HaloTag fusion expressed in HEK293 cells) (UniProt P35222 1-781)
T6 sequence (looked up): T1 sequence
Test: cell-based or functional assay

Binder	NanoBRET Abs IC50 [µM]
B21	10
B22	27.8
B23	7.5
B24	> 20
B25	> 20
B26	17.3

Target: T7, B-cat-Halo (UniProt P35222 1-781)
T7 sequence (looked up): T1 sequence
Test: cell-based or functional assay

Binder	NanoBRET Abs IC50 [µM]
B27	4.5
B28	7

Target: T8, B-cat-Halo (beta-catenin HaloTag NanoBRET construct expressed in HEK293 cells) (UniProt P35222 1-781)
T8 sequence (looked up): T1 sequence
Test: cell-based or functional assay

Binder	NanoBRET Abs IC50 [µM]
B1	17
B29	4.6
B30	3.5
B31	12.1
B32	15.6
B2	21.4
B3	16.9
